Assay results published in patent publication EP4582453A1 (Cichlid Inc., dated 2025).

Target: T1, human CTLA-4 protein overexpressed in the HEK293 cell line (human, UniProt P16410 36-223)
T1 construct: whole, on cells; also called CTLA-4/HEK293 cell line; CTLA-4 expressing cell line
T1 sequence (looked up): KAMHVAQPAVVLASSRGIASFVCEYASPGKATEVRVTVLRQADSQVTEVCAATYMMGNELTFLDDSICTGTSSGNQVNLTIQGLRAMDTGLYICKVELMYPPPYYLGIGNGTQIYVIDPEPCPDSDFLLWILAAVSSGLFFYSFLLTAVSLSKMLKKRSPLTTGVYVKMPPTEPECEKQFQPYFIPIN
Assay: cell ELISA of HA-tagged scFv extract on CTLA-4-expressing HEK293 cells, anti-HA HRP

Row | Binder | binding result
1 | 3E4 scFv (scFv, V domains shown, HA-tagged scFv from a synthetic human scFv phage library, tested as an E. coli extract; VH and VL form one chain in the scFv) VH: EVQLLESGGGLVQPGGSLRLSCAASGFTFSNYAMSWVRQAPGKGLEWVSVIYYDGSNKYYADSVKGRFTISRDNSKNTLYLQMNSLRAEDTAVYYCARNTYRFDYWGQGTLVTVSS VL: QSVLTQPPSASGTPGQRVTISCSGSSSNIGNNAVTWYQQLPGTAPKLLIYSDSNRPSGVPDRFSGSKSGTSASLAISGLRSEDEADYYCGSWDSSLSGYVFGGGTKLTVL | binds
2 | 4B6 scFv (scFv, V domains shown, HA-tagged scFv) VH: EVQLLESGGGLVQPGGSLRLSCAASGFTFSGYSMSWVRQAPGKGLEWVSSISPSGGNTYYADSVKGRFTISRDNSKNTLYLQMNSLRAEDTAVYYCAKTSELFDYWGQGTLVTVSS VL: QSVLTQPPSASGTPGQRVTISCTGSSSNIGSNDVNWYQQLPGTAPKLLIYNDSHRPSGVPDRFSGSKSGTSASLAISGLRSEDEADYYCGTWDYSLSAYVFGGGTKLTV | binds
